Target: T1, SOX2 (Homo sapiens, UniProt P48431)
T1 construct: endogenous in cells; host or cells: nuclear extract of GSC7 and GSC328 (patient-derived glioblastoma stem cell lines)
Assay: Biotinylated enhancer pull down with nuclear extract and mass spectrometry
Assay type: binding
Conditions: normalised to random sequence 599
Method: The oligo was PCR-amplified using biotinylated primers. The PCR product was then SPRI purified to remove biotinylated primer dimers. These dsDNA fragments were incubated with nuclear extract from GSC7 and GSC328. They were then bound to streptavidin magnetic beads, washed three times and the frozen beads were sent for mass spectrometry analysis.
All the buffers were prepared the day before, passed through a […] filter (except the dialysis buffer) and left at 4° C. overnight. DTT and protease inhibitors were added just before use. The cells were scraped on the media and collected on 50 ml falcons, which were spun at 1350 rcf 5 minutes at 4° C. The pellet was resuspended in 50 ml of ice cold PBS, an aliquot was taken for cell counting, and spun again spun at 1350 rcf 5 minutes at 4° C. The pellet was then resuspended in 5 ml per 40 million cells of ice cold buffer A (10 mM HEPES pH 7.9, 1.5 mM MgCl2, 10 mM KCl, 0.5 mM DTT, protease inhibitors (Complete, Roche, 11697498001)) and incubated on ice for 10 min. The cell suspension was transferred to a glass Dounce homogenizer and dounced 40 times on ice. The cell suspension was transferred to a falcon and centrifuged at 1350 rcf for 10 min at 4° C. […] The supernatant was collected into new 1.5 ml tubes and quantified (Pierce BCA Protein Assay Kit, Thermo Scientific, Cat 23225). […]

T1 sequence (P48431 whole entry): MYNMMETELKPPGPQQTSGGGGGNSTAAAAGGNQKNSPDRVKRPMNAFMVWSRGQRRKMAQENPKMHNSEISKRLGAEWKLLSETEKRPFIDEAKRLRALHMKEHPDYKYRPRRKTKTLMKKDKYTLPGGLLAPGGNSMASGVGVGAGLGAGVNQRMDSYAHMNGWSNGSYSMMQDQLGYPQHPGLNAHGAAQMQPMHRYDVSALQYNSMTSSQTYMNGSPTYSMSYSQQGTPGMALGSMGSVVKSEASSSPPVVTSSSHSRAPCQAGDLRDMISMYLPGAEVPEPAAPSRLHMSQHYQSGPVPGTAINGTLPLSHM

B1: ID1101: enhancer fragment, SEQ ID NO: 4 (nucleic acid)
DNA: GTGAGTGTGACTCACATGCTGGCATCAGAGCCCCTCTTAGAGCTTAGAACACTGGGCCTCTGTCAGGCAAAGAAAAGGAGTCCCTATGAATAGCCATCTCCACAAATAGCAGTTACTGTCACTTCTTAAAAGACACAAGCATGGCTGGAGACCGGCACTG
G7 nuclear extract
  SOX2 enrichment in pull down (mass spectrometry): 4.4 fold
GSC328 nuclear extract
  SOX2 enrichment in pull down (mass spectrometry): 23 fold
